Assay results from patent US20210380663A1 (ACCELERON PHARMA, published 2021).
Read-outs that look alike come from different tables or passages of the source.

Legend:
activin A [1] = target: T1, activin A (UniProt P08476 311-426)
T1 sequence (looked up): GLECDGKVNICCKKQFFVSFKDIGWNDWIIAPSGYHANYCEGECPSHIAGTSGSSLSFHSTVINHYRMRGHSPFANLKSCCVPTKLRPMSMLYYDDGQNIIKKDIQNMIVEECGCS

activin B = target: T2, activin B (UniProt P09529)
T2 sequence (looked up): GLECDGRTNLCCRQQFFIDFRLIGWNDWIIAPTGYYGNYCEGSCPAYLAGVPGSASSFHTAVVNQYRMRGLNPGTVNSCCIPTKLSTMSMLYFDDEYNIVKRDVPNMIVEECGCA

TGFβ1 [2] = target: T3, TGFβ1 (human, UniProt P01137 279-390)
T3 sequence (P01137 279-390 limits assumed): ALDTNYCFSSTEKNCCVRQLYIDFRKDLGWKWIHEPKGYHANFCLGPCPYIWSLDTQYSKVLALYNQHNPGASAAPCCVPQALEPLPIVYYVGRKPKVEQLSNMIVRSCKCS

BMP10 = target: T4, BMP10 (UniProt O95393)
T4 sequence (looked up): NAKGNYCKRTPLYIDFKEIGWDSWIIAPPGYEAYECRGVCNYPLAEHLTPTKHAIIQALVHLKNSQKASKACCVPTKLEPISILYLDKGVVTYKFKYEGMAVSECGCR

BMP9 = target: T5, BMP9 (UniProt Q9UK05)
T5 sequence (looked up): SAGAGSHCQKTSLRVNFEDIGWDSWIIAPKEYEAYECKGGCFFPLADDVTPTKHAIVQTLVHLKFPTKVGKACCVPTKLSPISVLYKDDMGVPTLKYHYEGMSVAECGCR

GDF8 = GDF8 (UniProt O14793)
TGFβ2 (human) = target: T6, TGFβ2 (human) (UniProt P61812)
T6 sequence (looked up): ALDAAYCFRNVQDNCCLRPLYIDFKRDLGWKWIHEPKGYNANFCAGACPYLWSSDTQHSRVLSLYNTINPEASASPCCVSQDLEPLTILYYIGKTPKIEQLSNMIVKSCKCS

GDF11 [3] = target: T7, GDF11 (UniProt O95390 299-407)
T7 sequence (O95390 299-407 limits assumed): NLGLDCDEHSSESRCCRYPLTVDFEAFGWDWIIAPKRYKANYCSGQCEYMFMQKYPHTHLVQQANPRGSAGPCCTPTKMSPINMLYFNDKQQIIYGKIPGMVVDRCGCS

TGFβ1 [4] = target: T3, TGFβ1; remark: listed apart in the source
TGFβ3 [5] = target: T8, TGFβ3 (human, UniProt P10600 301-412)
T8 sequence (looked up): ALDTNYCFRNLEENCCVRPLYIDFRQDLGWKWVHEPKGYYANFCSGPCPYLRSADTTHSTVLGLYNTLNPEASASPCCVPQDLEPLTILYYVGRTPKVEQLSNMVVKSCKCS

TGFβ3 [6] = target: T8, TGFβ3; remark: listed apart in the source
activin A [7] = target: T1, activin A; assay: cell-based or functional assay
GDF11 [8] = target: T7, GDF11; assay: cell-based or functional assay
TGFβ1 [9] = target: T3, TGFβ1; assay: cell-based or functional assay
TGFβ3 [10] = target: T8, TGFβ3; assay: cell-based or functional assay
TGFβ1 [11] = target: T3, TGFβ1; assay: cell-based or functional assay; remark: listed apart in the source
TGFβ3 [12] = target: T8, TGFβ3; assay: cell-based or functional assay; remark: listed apart in the source

TβRII-Fc homodimer (Fc fusion) was tested, and the IC50; inhibition of activin A signalling, CAGA12 reporter gene assay (activin A [1]) was greater than 20 µg/mL, the IC50; inhibition of activin B signalling, CAGA12 reporter gene assay (activin B) was greater than 20 µg/mL and the IC50; inhibition of TGFβ1 signalling, CAGA12 reporter gene assay (TGFβ1 [2]) was 0.017 nM. The IC50; inhibition of BMP10 signalling, CAGA12 reporter gene assay (BMP10) was greater than 20 µg/mL, the IC50; inhibition of BMP9 signalling, CAGA12 reporter gene assay (BMP9) was greater than 20 µg/mL and the IC50; inhibition of GDF8 signalling, CAGA12 reporter gene assay (GDF8) was greater than 20 µg/mL. It also gave an IC50; inhibition of TGFβ2 signalling, CAGA12 reporter gene assay (TGFβ2 (human)) greater than 20 µg/mL and an IC50; inhibition of GDF11 signalling, CAGA12 reporter gene assay (GDF11 [3]) greater than 20 µg/mL.

TGFBRII-(G4S)4-hFc dimer (Fc fusion) showed an IC50; inhibition of TGFβ1 signalling, CAGA12 reporter gene assay in A549 cells (TGFβ1 [4]) of 0.143 nM and an IC50; inhibition of TGFβ3 signalling, CAGA12 reporter gene assay in A549 cells (TGFβ3 [5]) of 0.106 nM.

B1: ActRIIB-Fc homodimer (Fc fusion)
ActRIIB-Fc chain: GRGEAETRECIYYNANWELERTNQSGLERCEGEQDKRLHCYASWRNSSGTIELVKKGCWLDDFNCYDRQECVATEENPQVYFCCCEGNFCNERFTHLPEAGGPEVTYEPPPTAPTGGGTHTCPPCPAPELLGGPSVFLFPPKPKDTLMISRTPEVTCVVVDVSHEDPEVKFNWYVDGVEVHNAKTKPREEQYNSTYRVVSVLTVLHQDWLNGKEYKCKVSNKALPVPIEKTISKAKGQPREPQVYTLPPSREEMTKNQVSLTCLVKGFYPSDIAVEWESNGQPENNYKTTPPVLDSDGSFFLYSKLTVDKSRWQQGNVFSCSVMHEALHNHYTQKSLSLSPGK
B1 was tested, and the IC50; inhibition of activin A signalling, CAGA12 reporter gene assay (activin A [1]) was 0.05 nM, the IC50; inhibition of activin B signalling, CAGA12 reporter gene assay (activin B) was 0.07 nM and the IC50; inhibition of TGFβ1 signalling, CAGA12 reporter gene assay (TGFβ1 [2]) was greater than 20 µg/mL. The IC50; inhibition of BMP10 signalling, CAGA12 reporter gene assay (BMP10) was 0.556 nM, the IC50; inhibition of BMP9 signalling, CAGA12 reporter gene assay (BMP9) was 2 nM and the IC50; inhibition of GDF8 signalling, CAGA12 reporter gene assay (GDF8) was 0.83 nM. It also gave an IC50; inhibition of TGFβ3 signalling, CAGA12 reporter gene assay (TGFβ3 [6]) greater than 20 µg/mL, an IC50; inhibition of TGFβ2 signalling, CAGA12 reporter gene assay (TGFβ2 (human)) greater than 20 µg/mL and an IC50; inhibition of GDF11 signalling, CAGA12 reporter gene assay (GDF11 [3]) of 0.09 nM. The “IC50; inhibition of activin A signalling, CAGA12 reporter gene assay in A204 cells” value (activin A [7]) was 0.079 nM and the “IC50; inhibition of GDF11 signalling, CAGA12 reporter gene assay in A204 cells” value (GDF11 [8]) was 0.135 nM.

B2: ActRIIB-Fc Single-Arm (Fc fusion)
ActRIIB-Fc chain: GRGEAETRECIYYNANWELERTNQSGLERCEGEQDKRLHCYASWRNSSGTIELVKKGCWLDDFNCYDRQECVATEENPQVYFCCCEGNFCNERFTHLPEAGGPEVTYEPPPTAPTGGGTHTCPPCPAPELLGGPSVFLFPPKPKDTLMISRTPEVTCVVVDVSHEDPEVKFNWYVDGVEVHNAKTKPREEQYNSTYRVVSVLTVLHQDWLNGKEYKCKVSNKALPAPIEKTISKAKGQPREPQVYTLPPSRKEMTKNQVSLTCLVKGFYPSDIAVEWESNGQPENNYKTTPPVLKSDGSFFLYSKLTVDKSRWQQGNVFSCSVMHEALHNHYTQKSLSLSPGK
Fc chain without receptor domain: SNTKVDKRVTGGGTHTCPPCPAPELLGGPSVFLFPPKPKDTLMISRTPEVTCVVVDVSHEDPEVKFNWYVDGVEVHNAKTKPREEQYNSTYRVVSVLTVLHQDWLNGKEYKCKVSNKALPAPIEKTISKAKGQPREPQVYTLPPSREEMTKNQVSLTCLVKGFYPSDIAVEWESNGQPENNYDTTPPVLDSDGSFFLYSDLTVDKSRWQQGNVFSCSVMHEALHNHYTQKSLSLSPGK
For B2, the “IC50; inhibition of activin A signalling, CAGA12 reporter gene assay in A204 cells” value (activin A [7]) was 1.41 nM and the “IC50; inhibition of GDF11 signalling, CAGA12 reporter gene assay in A204 cells” value (GDF11 [8]) was 2.61 nM.

B3: ActRIIB-Fc:TβRII-Fc heterodimer (Fc fusion, not shown: a dimerising Fc or GST)
chain 1: GRGEAETRECIYYNANWELERTNQSGLERCEGEQDKRLHCYASWRNSSGTIELVKKGCWLDDFNCYDRQECVATEENPQVYFCCCEGNFCNERFTHLPEAGGPEVTYEPPPTAPTGGGGSGGGGSGGGGSGGGGS
chain 2: TIPPHVQKSDVEMEAQKDEIICPSCNRTAHPLRHINNDMIVTDNNGAVKFPQLCKFCDVRFSTCDNQKSCMSNCSITSICEKPQEVCVAVWRKNDENITLETVCHDPKLPYHDFILEDAASPKCIMKEKKKPGETFFMCSCSSDECNDNIIFSEEYNTSNPDTGGGGSGGGGSGGGGSGGGGS
B3 was tested, and the IC50; inhibition of activin A signalling, CAGA12 reporter gene assay (activin A [1]) was 0.85 nM, the IC50; inhibition of activin B signalling, CAGA12 reporter gene assay (activin B) was 0.64 nM and the IC50; inhibition of TGFβ1 signalling, CAGA12 reporter gene assay (TGFβ1 [2]) was 0.348 nM. It also gave an IC50; inhibition of BMP10 signalling, CAGA12 reporter gene assay (BMP10) of 1.76 nM, an IC50; inhibition of BMP9 signalling, CAGA12 reporter gene assay (BMP9) greater than 20 µg/mL and an IC50; inhibition of GDF8 signalling, CAGA12 reporter gene assay (GDF8) of 8.16 nM. The IC50; inhibition of TGFβ3 signalling, CAGA12 reporter gene assay (TGFβ3 [6]) was 0.31 nM, the IC50; inhibition of TGFβ2 signalling, CAGA12 reporter gene assay (TGFβ2 (human)) was greater than 20 µg/mL and the IC50; inhibition of GDF11 signalling, CAGA12 reporter gene assay (GDF11 [3]) was 1.73 nM.

B4: Fc1-(G4S)4G-TGFBRII, homodimer (Fc fusion)
chain: GASNTKVDKRVTGGGTHTCPPCPAPELLGGPSVFLFPPKPKDTLMISRTPEVTCVVVDVSHEDPEVKFNWYVDGVEVHNAKTKPREEQYNSTYRVVSVLTVLHQDWLNGKEYKCKVSNKALPAPIEKTISKAKGQPREPQVCTLPPSREEMTKNQVSLSCAVKGFYPSDIAVEWESNGQPENNYKTTPPVLDSDGSFFLVSKLTVDKSRWQQGNVFSCSVMHEALHNHYTQKSLSLSPGAGGGGSGGGGSGGGGSGGGGSGTIPPHVQKSDVEMEAQKDEIICPSCNRTAHPLRHINNDMIVTDNNGAVKFPQLCKFCDVRFSTCDNQKSCMSNCSITSICEKPQEVCVAVWRKNDENITLETVCHDPKLPYHDFILEDAASPKCIMKEKKKPGETFFMCSCSSDECNDNIIFSEEYNTSNPD
For B4, the “CAGA12 reporter gene assay in A549 cells, inhibition relative to the TGFBRII-(G4S)4-hFc homodimer” value (TGFβ1 [9]) was roughly 7 fold and the “CAGA12 reporter gene assay in A549 cells, inhibition relative to the TGFBRII-(G4S)4-hFc homodimer” value (TGFβ3 [10]) was roughly 7 fold.

B5: ActRIIB-Fc-(G4S)4G-TGFBRII + Fc1-(G4S)4G-TGFBRII (3-arm) (Fc fusion)
ActRIIB-Fc(knob)-(G4S)4G-TGFBRII chain: GASGRGEAETRECIYYNANWELERTNQSGLERCEGEQDKRLHCYASWRNSSGTIELVKKGCWLDDFNCYDRQECVATEENPQVYFCCCEGNFCNERFTHLPEAGGPEVTYEPPPTAPTGGGTHTCPPCPAPELLGGPSVFLFPPKPKDTLMISRTPEVTCVVVDVSHEDPEVKFNWYVDGVEVHNAKTKPREEQYNSTYRVVSVLTVLHQDWLNGKEYKCKVSNKALPAPIEKTISKAKGQPREPQVYTLPPCREEMTKNQVSLWCLVKGFYPSDIAVEWESNGQPENNYKTTPPVLDSDGSFFLYSKLTVDKSRWQQGNVFSCSVMHEALHNHYTQKSLSLSPGAGGGGSGGGGSGGGGSGGGGSGTIPPHVQKSDVEMEAQKDEIICPSCNRTAHPLRHINNDMIVTDNNGAVKFPQLCKFCDVRFSTCDNQKSCMSNCSITSICEKPQEVCVAVWRKNDENITLETVCHDPKLPYHDFILEDAASPKCIMKEKKKPGETFFMCSCSSDECNDNIIFSEEYNTSNPD
Fc1(hole)-(G4S)4G-TGFBRII chain: GASNTKVDKRVTGGGTHTCPPCPAPELLGGPSVFLFPPKPKDTLMISRTPEVTCVVVDVSHEDPEVKFNWYVDGVEVHNAKTKPREEQYNSTYRVVSVLTVLHQDWLNGKEYKCKVSNKALPAPIEKTISKAKGQPREPQVCTLPPSREEMTKNQVSLSCAVKGFYPSDIAVEWESNGQPENNYKTTPPVLDSDGSFFLVSKLTVDKSRWQQGNVFSCSVMHEALHNHYTQKSLSLSPGAGGGGSGGGGSGGGGSGGGGSGTIPPHVQKSDVEMEAQKDEIICPSCNRTAHPLRHINNDMIVTDNNGAVKFPQLCKFCDVRFSTCDNQKSCMSNCSITSICEKPQEVCVAVWRKNDENITLETVCHDPKLPYHDFILEDAASPKCIMKEKKKPGETFFMCSCSSDECNDNIIFSEEYNTSNPD
In the case of B5, the “IC50; inhibition of activin A signalling, CAGA12 reporter gene assay in A204 cells” value (activin A [7]) is reported as 2.96 nM, the “IC50; inhibition of TGFβ1 signalling, CAGA12 reporter gene assay in A549 cells” value (TGFβ1 [11]) is reported as 0.0201 nM and the “IC50; inhibition of TGFβ3 signalling, CAGA12 reporter gene assay in A549 cells” value (TGFβ3 [12]) is reported as 0.016 nM. For the same molecule, the “IC50; inhibition of GDF11 signalling, CAGA12 reporter gene assay in A204 cells” value (GDF11 [8]) was 4.4 nM.
